Assay results as given in patent US20170174769A1 (Regeneron, published 2017).

Legend:
[1] = target: cell-surface human FGFR1c (amino acids 1-731 of NP_075594) with cell-surface human KLB on … (human, UniProt P11362 22-822); experiment: cell-based or functional assay
[2] = target: T1, full-length human FGFR1c on HEK293/hFGFR1c/SRE-luc cells (human, UniProt P11362 22-822); experiment: FACS on stable HEK293 cells, 33 nM
T1 construct: amino acids 1-733 of NP_075593
Procedure: (§1) For the FACS analysis, HEK293 parental, HEK293/hFGFR1c, HEK293/hFGFR1c/hKLB, and HEK293/mFGFR1c/mKLB cells were dissociated and plated onto 96-well v-bottom plates at 0.5×10⁶ cells/well in 2% FBS/PBS. […] Control mAb2 was tested at a concentration of 965 nM. After primary protein incubation cells were washed and incubated with 3.75 μg/mL fluorescently conjugated secondary antibodies for 30 minutes at 4° C. Cells were filtered and analyzed on Accuri™ 6 Flow Cytometer. Unstained and secondary antibody alone controls were also tested for all cell lines. The results were analyzed using FlowJo version 9.52 software and geometric mean (Geom. Mean) of fluorescence for viable cells were determined. Geom. mean of fluorescence for each antibody was then normalized to Geom. mean of unstained cells to obtain relative binding of antibody (binding ratios) per each cell type.

[3] = target: T2, human KLB and human FGFR1c co-expressed on HEK293/hKLB/hFGFR1c/SRE-luc cells (human, UniProt Q86Z14 1-1044; P11362 22-822); experiment: FACS on stable HEK293 cells, 33 nM
T2 construct: two receptors co-expressed on one cell line; also called KLB/FGFR1c coreceptor; FGF21R
T2 sequence (Q86Z14 whole entry, chain 1 of 2): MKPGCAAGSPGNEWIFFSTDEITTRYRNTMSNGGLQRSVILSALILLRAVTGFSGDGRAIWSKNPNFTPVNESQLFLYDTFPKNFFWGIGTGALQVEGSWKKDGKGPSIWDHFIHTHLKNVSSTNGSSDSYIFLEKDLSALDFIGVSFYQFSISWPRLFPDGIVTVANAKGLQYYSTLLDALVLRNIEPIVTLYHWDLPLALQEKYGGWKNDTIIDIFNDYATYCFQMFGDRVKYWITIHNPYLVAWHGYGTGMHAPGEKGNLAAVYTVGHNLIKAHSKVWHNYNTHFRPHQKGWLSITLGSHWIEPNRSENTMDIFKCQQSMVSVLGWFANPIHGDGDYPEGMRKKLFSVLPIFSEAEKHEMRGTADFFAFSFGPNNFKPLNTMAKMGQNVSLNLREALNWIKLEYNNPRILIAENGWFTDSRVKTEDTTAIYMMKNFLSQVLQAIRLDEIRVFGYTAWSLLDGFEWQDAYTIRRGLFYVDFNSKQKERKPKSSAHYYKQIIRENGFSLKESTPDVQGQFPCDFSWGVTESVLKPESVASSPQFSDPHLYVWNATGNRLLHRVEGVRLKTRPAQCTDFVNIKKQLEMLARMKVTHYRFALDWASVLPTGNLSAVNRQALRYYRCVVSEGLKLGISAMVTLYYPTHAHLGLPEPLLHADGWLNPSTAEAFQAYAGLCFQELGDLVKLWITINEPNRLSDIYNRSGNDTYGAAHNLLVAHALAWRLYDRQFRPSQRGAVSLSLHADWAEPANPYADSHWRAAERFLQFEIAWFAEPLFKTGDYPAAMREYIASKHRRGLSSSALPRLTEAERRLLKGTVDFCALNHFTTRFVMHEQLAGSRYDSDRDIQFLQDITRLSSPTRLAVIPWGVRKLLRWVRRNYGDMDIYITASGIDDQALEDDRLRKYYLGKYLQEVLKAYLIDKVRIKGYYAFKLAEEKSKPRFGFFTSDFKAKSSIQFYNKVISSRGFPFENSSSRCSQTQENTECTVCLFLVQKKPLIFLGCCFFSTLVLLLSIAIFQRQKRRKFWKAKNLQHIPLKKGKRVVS
T2 sequence (P11362 other isoform, or with tags, fused parts or gaps limits assumed, chain 2 of 2): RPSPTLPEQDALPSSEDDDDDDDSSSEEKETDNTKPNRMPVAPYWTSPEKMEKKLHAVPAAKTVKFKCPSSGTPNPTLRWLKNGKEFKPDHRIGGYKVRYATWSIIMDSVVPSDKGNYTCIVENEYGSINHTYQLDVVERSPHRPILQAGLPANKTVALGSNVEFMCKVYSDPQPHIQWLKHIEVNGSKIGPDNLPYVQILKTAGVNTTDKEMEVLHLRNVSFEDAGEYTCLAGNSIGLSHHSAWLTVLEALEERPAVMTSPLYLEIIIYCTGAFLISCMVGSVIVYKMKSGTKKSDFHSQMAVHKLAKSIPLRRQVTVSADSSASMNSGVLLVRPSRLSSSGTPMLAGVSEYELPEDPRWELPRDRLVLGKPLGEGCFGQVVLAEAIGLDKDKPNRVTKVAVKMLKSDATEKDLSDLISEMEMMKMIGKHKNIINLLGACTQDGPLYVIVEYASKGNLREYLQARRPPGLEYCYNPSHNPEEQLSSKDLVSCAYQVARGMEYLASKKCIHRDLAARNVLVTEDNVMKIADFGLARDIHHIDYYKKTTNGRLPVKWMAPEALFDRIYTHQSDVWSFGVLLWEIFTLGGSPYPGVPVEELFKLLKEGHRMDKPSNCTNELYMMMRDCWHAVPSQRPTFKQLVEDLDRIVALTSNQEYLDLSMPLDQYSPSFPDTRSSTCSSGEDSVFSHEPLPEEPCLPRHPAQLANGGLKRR
Procedure: as §1

[4] = target: T1, full-length human FGFR1c on …; experiment: FACS on stable HEK293 cells, 965 nM
Procedure: as §1

[5] = target: T2, human KLB and human FGFR1c co-expressed …; experiment: FACS on stable HEK293 cells, 965 nM
Procedure: as §1

T1 sequence (P11362 other isoform, or with tags, fused parts or gaps limits assumed): as the sequence (P11362 other isoform, or with tags, fused parts or gaps limits assumed, chain 2 of 2) above
Chain of cell-surface human FGFR1c (amino acids 1-731 of NP_075594) with cell-surface human KLB on … (P11362 22-822, chain 1 of 2): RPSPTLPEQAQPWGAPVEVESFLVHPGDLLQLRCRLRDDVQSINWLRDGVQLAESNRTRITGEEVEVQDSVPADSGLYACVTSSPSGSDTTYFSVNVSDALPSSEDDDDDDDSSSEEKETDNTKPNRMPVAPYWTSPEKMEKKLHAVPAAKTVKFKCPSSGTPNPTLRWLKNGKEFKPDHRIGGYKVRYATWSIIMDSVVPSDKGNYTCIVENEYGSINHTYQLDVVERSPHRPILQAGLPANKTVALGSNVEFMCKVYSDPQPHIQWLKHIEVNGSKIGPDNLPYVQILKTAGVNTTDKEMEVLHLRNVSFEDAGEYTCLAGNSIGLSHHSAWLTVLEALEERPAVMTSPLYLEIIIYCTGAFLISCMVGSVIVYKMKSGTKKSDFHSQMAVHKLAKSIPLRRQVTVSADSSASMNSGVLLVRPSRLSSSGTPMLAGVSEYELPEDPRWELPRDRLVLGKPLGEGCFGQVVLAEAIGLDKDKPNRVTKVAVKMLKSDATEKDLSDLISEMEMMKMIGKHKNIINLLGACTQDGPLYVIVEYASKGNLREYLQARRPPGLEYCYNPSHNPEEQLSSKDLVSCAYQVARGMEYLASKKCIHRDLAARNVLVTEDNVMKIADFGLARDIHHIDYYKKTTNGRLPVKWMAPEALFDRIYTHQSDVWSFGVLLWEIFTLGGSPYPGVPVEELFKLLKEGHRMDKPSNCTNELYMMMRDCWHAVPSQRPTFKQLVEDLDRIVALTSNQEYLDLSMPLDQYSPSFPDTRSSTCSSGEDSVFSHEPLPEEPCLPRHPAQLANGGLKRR
Chain of cell-surface human FGFR1c (amino acids 1-731 of NP_075594) with cell-surface human KLB on … (chain, as listed by the source, chain 2 of 2): as the sequence (Q86Z14 whole entry, chain 1 of 2) above

- % Activation [1]: 0.7%
- EC50, SRE-luc activation [1]: 47 nM
- MFI Ratio to unstained cells [2]: 2 fold
- MFI Ratio to unstained cells [3]: 2 fold
- MFI Ratio to unstained cells [4]: 5 fold
- MFI Ratio to unstained cells [5]: 5 fold
B1: H1H8900P (antibody, V domains shown)
VH: QVQLVESGGGVVQPGRSLRLSCVASGFTFSSYGMHWVRQAPGKGLEWVAVISFDGSNKYYADSVKGRFTISRDNSKNTLYLQMNSLRPADTAVYYCAKDRSNYYYFGMDVWGQGTTVTVSS
VL: DIVMTQTPLSLPVTPGEPASISCRSSQSLLDSDDGNTYLDWYLQKPGQSPQLLIYTLSYRASGVPDRFSGSGSGTDFTLKISRVEAEDVGVYYCMQRIEFPLTFGGGTKVEIK
notes: H1H Fc prefix (human Fc)
